Experimental data from patent US20170044257A1 (BRIGHAM AND WOMEN S HOSPITAL, published 2017).

Biological target: T1, human alpha-fetoprotein (hAFP) (human, UniProt P02771 19-609)
T1 construct: No signal peptide cleavage site is stated; also called human AFP
T1 sequence: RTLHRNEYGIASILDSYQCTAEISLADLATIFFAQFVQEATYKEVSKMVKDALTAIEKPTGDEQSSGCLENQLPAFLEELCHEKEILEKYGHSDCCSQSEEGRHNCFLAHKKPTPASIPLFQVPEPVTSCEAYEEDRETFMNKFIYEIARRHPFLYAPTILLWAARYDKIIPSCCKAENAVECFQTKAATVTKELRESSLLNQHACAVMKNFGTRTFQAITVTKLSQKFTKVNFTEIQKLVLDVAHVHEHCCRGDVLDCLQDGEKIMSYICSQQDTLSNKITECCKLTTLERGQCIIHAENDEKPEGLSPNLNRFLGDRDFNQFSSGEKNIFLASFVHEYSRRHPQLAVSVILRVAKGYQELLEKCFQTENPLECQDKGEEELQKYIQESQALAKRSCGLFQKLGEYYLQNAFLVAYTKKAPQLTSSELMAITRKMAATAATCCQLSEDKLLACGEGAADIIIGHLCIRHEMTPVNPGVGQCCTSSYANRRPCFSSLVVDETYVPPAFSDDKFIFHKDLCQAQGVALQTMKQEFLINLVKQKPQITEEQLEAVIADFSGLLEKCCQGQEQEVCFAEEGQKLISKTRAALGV
Assay: SPR (Biacore 3000), mFcRn/mβ2m on chip, hAFP injected, neutral pH
Experimental: Surface plasmon resonance was conducted using a Biacore 3000 instrument (GE Healthcare) with CMS sensor chips coupled with recombinant human FcRn & hβ₂m heterodimer protein or mouse FcRn & mβ₂m (1000 RU). The coupling was performed by injecting 25 μg/mL of the protein diluted in 10 mM sodium acetate pH 5.0 using the amine coupling kit (GE Healthcare). Phosphate buffer (67 mM phosphate buffer, 0.15 M NaCl, 0.005% Tween 20) at pH 6.0 or pH 7.4 was used as running buffer. Glycine pH 2.5 was used for regeneration of the flow cells. hAFP (SinoBiological) was injected at 25° C. with a flow rate of 25 μl/min, and data were analyzed using the BIAevaluation 4.1 software where the sensorgrams were zero adjusted and reference cell values subtracted.

B1: recombinant mouse FcRn & mβ2m (receptor)
chain: SETRPPLMYHLTAVSNPSTGLPSFWATGWLGPQQYLTYNSLRQEADPCGAWMWENQVSWYWEKETTDLKSKEQLFLEALKTLEKILNGTYTLQGLLGCELASDNSSVPTAVFALNGEEFMKFNPRIGNWTGEWPETEIVANLWMKQPDAARKESEFLLNSCPERLLGHLERGRRNLEWKEPPSMRLKARPGNSGSSVLTCAAFSFYPPELKFRFLRNGLASGSGNCSTGPNGDGSFHAWSLLEVKRGDEHHYQCQVEHEGLAQPLTVDLDSSARSS
b2m: IQKTPQIQVYSRHPPENGKPNILNCYVTQFHPPHIEIQMLKNGKKIPKVEMSDMSFSKDWSFYILAHTEFTPTETDTYACRVKHASMAEPKTVYWDRDM
notes: Coupled to the Biacore chip for SPR; also called mFcRn
B1: binds.
